Consider one molecule from paper PMC9198364 (Molecular Therapy. Methods & Clinical Development, 2022).

Experiment [1] has as its target adeno-associated virus (AAV) 9 capsid (recombinant AAV9 particles) (adeno-associated virus 9, UniProt Q6JC40 1-736). In words: SPR. (In SPR one partner is held on a chip, and binding of the other changes the refractive index at the surface.)
The target in experiment [2] is AAVPHP.eB capsid (recombinant AAVPHP.eB particles) (adeno-associated virus 9 (parental serotype)) (UniProt Q6JC40). In words: SPR.

B1: soluble AAV receptor (AAVR) extracellular fragment containing PKD1-5 (domain or fragment)
chain: RKNRPPIAIVSPQFQEISLPTTSTVIDGSQSTDDDKIVQYHWEELKGPLREEKISEDTAILKLSKLVPGNYTFSLTVVDSDGATNSTTANLTVNK
Consider B1, for which the Kd in experiment [1] was 138 nM; in experiment [2], 274 nM.

As a reminder, the Kd is the free concentration of one partner at which half of the binding sites on the other are occupied at equilibrium, for simple one-to-one binding.
